Sequences and labels used below:
B1: antibody 34 (antibody, V domains shown)
VH: QVTLKESGPGILQPSQTLSLTCSFSGFSLSTFSLGVGWIRQSSGKGLEWLAHIWWDDEKYYNPALKSRLTISKDTSKNQVFLKIANVDAADTATYYCARAYYSKSYYALDYWGQGTSVTVSS
VL: DIQMTQSPSSLSASLGERVSLTCRASQEISGYLSWLQQKPDGTIKRLIYAASTLDSGVPKRFSGSRSGSDYSLAISSLESEDFADYYCLQYANFPFTFGSGTKLEIK
notes: mouse IgG, kappa light chain; also called clone #34; purified antibody 34
B2: antibody 16 (antibody, V domains shown)
VH: QVTLKESGPGILQPSQTLSLTCSFSGFSLSTFALGVGWIRQPSGRGLEWLAHIWWDDDKYYNPALKSRLTISKDTSKNHVFLKIANVDTADTATYYCARITTYYYGMDYWGQGTSVTVSS
VL: DIVLSQSPATLSVTPGDSVSLFCRASQSIGNHLHWYQQESHASPRLLIKYASQSISGIPSRFSGSGSGTDFTLSINSVETEDFGMYFCQQSYNWPLTFGAGTKLELK
notes: mouse IgG, kappa light chain; also called clone #16; purified antibody 16
B3: antibody 3 (antibody, V domains shown)
VH: QVTLKESGPGILQPSQTLSLTCSFSGFSLTTFAMGIGWVRQPSGKGLEWLAHIWWDGEKYNNPVLKSRLTISKDTSKNQVFLRIANVDTPDTATYYCARISSIYYIIDNWGQGTSVTVSS
VL: B2 VL with S5T, D17H, F22S, G30S, H32N, Q38K, E39K, A42E, A51V
notes: mouse IgG, kappa light chain; also called clone #3; purified antibody 3
B4: antibody 5 (antibody, V domains shown)
VH: QVTLKESGPGILQPSQTLSLTCSFSGFSLSTFGMGVGWIRQPSGKGLEWLAHIWWDDEKYYNSALKSRLTISKATSKNQAFLKIANVDTADTATYYCARISNYGSNYWYFNVWGTGTTVTVSS
VL: QVVLTQSPALMSASPGEKVTMTCSAGSSVSCMYWYQQKPGSSPRVLIYDTSNLASGVPARFTGSGSGTSYSLTISRMEAEDAASYYCQQWNSYPLTFGAGTKLELK
notes: mouse IgG, kappa light chain; also called clone #5; purified antibody 5
B5: antibody 43 (antibody, V domains shown)
VH: B4 VH with T3A, P42S, H52N, E58D, S63P, A74D, T75A, S101G, N111D
VL: QIVLTQSPAIMSASPGERVTMTCSANSRISYMYWYQQKPGSSPRLLIYDTSNLASGVPVRFSGSGSGTSYSLTISRMEAEDAATYNCQQWSSYPLTFGAGTKLELK
notes: mouse IgG, kappa light chain; also called clone #43; purified antibody 43
B6: antibody 42 (antibody, V domains shown)
VH: B4 VH with F24L, M34R, S63P, A74D, A80V, K83R, S101Q, N111D
VL: B5 VL with Q1L, R18K, S24G, N26T, Y33F, L45V, M77V, A82V, N86Y, S91N
notes: mouse IgG, kappa light chain; also called clone #42; purified antibody 42
B7: antibody 44 (antibody, V domains shown)
VH: B4 VH with G44E, E58D, S63P, A74D, A80I, A85T, D91E, A98S, S101G, N111D
VL: QIVLTQSPAVMSASPGEKVTMTCTASSSVYYMYWYQQTPGSSPRLLIYDTSNLASGVPVRFSGSGSGTSYSLTISRMEAEDAATYYCQQWNTYPLTFGAGTKLELK
notes: mouse IgG, kappa light chain; also called clone #44; purified antibody 44
B8: antibody 22 (antibody, V domains shown)
VH: B4 VH with A80V
VL: B4 VL with C31Y, S84T
notes: mouse IgG, kappa light chain; also called clone #22; purified antibody 22

Where a chain is given by its changes, count along the chain named.

For one assay, the target named is T1, hiR2-FL-D535-T7 (deletion of D535) (human, UniProt Q6PJF5 1-856).
T1 construct: single amino acid deletion
T1 sequence: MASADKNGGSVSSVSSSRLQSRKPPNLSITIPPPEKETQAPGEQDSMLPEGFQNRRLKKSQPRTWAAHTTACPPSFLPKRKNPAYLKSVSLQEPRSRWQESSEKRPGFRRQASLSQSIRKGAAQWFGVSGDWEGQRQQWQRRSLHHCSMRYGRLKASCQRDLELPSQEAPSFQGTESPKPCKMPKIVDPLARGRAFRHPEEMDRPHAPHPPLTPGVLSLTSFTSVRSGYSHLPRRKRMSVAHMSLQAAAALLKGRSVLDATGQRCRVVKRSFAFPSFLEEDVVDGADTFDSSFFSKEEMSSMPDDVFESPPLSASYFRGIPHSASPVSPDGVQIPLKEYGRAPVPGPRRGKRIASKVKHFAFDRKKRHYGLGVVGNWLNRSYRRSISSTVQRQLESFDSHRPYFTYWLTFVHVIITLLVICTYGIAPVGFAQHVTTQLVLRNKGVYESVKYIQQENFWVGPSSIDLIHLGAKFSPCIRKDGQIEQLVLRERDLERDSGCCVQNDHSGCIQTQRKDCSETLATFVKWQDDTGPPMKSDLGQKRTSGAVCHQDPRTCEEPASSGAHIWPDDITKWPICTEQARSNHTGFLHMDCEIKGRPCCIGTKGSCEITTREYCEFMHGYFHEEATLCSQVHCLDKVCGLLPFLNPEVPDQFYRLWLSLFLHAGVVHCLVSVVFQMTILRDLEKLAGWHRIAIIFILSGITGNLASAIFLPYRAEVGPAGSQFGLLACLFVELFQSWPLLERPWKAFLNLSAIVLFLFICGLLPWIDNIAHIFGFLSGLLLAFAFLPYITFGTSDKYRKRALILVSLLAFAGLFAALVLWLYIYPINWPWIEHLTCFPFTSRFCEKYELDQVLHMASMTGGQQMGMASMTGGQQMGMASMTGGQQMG
Nature of the assay: FACS on MEF-DKO cells.
As for B1, the binding result is on record as “no binding (tested: 3 µg/ml)”.
Regarding B2, the binding result is reported as “no binding (tested: 3 µg/ml)”.
B3: the binding result was “no binding (tested: 3 µg/ml)”.
As for B4, the binding result is “no binding (tested: 3 µg/ml)”.
As for B5, the binding result is on record as “no binding (tested: 3 µg/ml)”.
For B6, the binding result is reported as “no binding (tested: 3 µg/ml)”.
On the same count and under the same terms, the result for B7 reads “no binding (tested: 3 µg/ml)”.
The same measure, in the same setting: the result for B8 reads “no binding (tested: 3 µg/ml)”.

The target of a further assay is T2, hiR2-FL-L539A-T7 (human, UniProt Q6PJF5 1-856).
T2 construct: on MEF-DKO cells
T2 sequence: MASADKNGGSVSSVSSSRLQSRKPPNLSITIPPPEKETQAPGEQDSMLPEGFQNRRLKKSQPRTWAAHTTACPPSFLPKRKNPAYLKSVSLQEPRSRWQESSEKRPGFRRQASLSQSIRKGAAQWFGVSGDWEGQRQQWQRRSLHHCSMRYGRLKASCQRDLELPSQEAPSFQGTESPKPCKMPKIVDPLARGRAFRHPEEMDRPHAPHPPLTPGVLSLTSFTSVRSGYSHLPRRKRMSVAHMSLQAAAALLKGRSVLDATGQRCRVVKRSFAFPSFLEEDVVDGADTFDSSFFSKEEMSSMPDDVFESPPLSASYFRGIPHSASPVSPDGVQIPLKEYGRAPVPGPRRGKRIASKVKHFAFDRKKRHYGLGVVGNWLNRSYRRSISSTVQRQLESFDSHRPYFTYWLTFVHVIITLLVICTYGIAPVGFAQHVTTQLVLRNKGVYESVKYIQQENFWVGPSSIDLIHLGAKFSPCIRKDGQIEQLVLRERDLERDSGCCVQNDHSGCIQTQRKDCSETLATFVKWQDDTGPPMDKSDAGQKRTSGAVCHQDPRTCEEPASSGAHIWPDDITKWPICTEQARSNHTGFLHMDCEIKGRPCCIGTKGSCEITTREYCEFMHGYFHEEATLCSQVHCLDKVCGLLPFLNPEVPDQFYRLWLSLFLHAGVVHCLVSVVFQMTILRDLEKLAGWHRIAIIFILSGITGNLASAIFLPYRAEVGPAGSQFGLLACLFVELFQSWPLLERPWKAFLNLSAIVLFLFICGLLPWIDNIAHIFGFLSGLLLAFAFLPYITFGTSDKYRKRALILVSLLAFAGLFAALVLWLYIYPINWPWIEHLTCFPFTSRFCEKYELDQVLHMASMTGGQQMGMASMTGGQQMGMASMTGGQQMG
Kind of assay: FACS on MEF-DKO cells.
With B1, the binding result is on record as “no binding (tested: 3 µg/ml)”.
In the case of B4, the binding result is reported as “no binding (tested: 3 µg/ml)”.
Still for that read-out and setting: to B5 belongs “no binding (tested: 3 µg/ml)”.
On the same count and under the same terms, the result for B6 reads “no binding (tested: 3 µg/ml)”; that for B7, “no binding (tested: 3 µg/ml)”.
For B8, the binding result was “no binding (tested: 3 µg/ml)”.

Another assay addresses T3, hiR2-FL-K536-T7 (deletion of K536) (human, UniProt Q6PJF5 1-856).
T3 construct: single amino acid deletion
T3 sequence: T1 sequence with K535D
Nature of the assay: FACS on MEF-DKO cells.
On to B1, for which the binding result is given as “no binding (tested: 3 µg/ml)”.
Same read-out and setting: to B2 belongs “no binding (tested: 3 µg/ml)”; to B3, “no binding (tested: 3 µg/ml)”; to B4, “no binding (tested: 3 µg/ml)”.
The same measure, in the same setting: to B5 belongs “no binding (tested: 3 µg/ml)”; to B6, “no binding (tested: 3 µg/ml)”; to B7, “no binding (tested: 3 µg/ml)”.
Same read-out and setting: the result for B8 reads “no binding (tested: 3 µg/ml)”.
